Data on 17 molecules can be found in patent publication US20240392024A1 (SHANGHAI CELGEN BIO PHARMACEUTICAL, published 2024).

Where a chain is given by its changes, count along the chain named. Several values for one entry are separate records, joined by “and”; a condition that tells them apart may be missing. Equal entries are not always repeated.

Experiment [1] deals with T1, TNFR2-His (Sino Biological, 10417-H08H, NP_001057.1 Met1-Asp257, with multi-histidine tag expressed on … (human, UniProt P20333 23-257)).
T1 construct: range 1-257; Bought protein; also called recombinant human TNFR2 protein; TNFR2-His antigen; not shown: C-terminal multi-histidine tag
T1 sequence (looked up): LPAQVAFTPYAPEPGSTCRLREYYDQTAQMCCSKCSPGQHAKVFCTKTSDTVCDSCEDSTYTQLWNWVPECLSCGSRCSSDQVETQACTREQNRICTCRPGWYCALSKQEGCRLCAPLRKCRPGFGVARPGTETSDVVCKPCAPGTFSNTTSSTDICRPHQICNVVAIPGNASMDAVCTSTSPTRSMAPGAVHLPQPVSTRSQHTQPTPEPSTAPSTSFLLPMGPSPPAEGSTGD
Put plainly: ELISA, plate coated with TNFR2-His. In outline: (§1)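 EC50 was obtained from a dilution series in an ELISA format. Blocked plates carried recombinant human TNFR2 with a C-terminal His tag, and serially diluted antibodies were incubated on them. An enzyme-labelled anti-IgG secondary antibody followed. Plates were then developed with TMB and read on a microplate reader.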
(In general: In an ELISA, binding on a coated surface is turned into a signal by an enzyme label.)

Experiment [2] has as its target T1, TNFR2-His (Sino Biological, 10417-H08H, …). Put plainly: ELISA, coated TNFR2-His. In outline: as §1
Experiment [3] has the same target. Put plainly: BLI, antibody captured on AHC probe, TNFR2-His in solution. The procedure, abridged:
(§2)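 Kon, koff and Kd values come from kinetic association measurements made by bio-layer interferometry (Octet, Basic Kinetics mode). Antibody-capture sensors carrying antibodies at 50 nM in Q buffer (10 mM PBS pH 7.4, 0.02% Tween 20, 0.2% BSA) were placed in recombinant human TNFR2, diluted 2-fold in the same buffer from a top concentration of 100 nM.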

For experiment [4], the target named is T2, human TNFR2 on the cell membrane (human, UniProt P20333 23-461).
T2 construct: whole, on cells; One molecule for all cell formats; also called TNFR2-CHO cells; CHO-TNFR2
T2 sequence (looked up): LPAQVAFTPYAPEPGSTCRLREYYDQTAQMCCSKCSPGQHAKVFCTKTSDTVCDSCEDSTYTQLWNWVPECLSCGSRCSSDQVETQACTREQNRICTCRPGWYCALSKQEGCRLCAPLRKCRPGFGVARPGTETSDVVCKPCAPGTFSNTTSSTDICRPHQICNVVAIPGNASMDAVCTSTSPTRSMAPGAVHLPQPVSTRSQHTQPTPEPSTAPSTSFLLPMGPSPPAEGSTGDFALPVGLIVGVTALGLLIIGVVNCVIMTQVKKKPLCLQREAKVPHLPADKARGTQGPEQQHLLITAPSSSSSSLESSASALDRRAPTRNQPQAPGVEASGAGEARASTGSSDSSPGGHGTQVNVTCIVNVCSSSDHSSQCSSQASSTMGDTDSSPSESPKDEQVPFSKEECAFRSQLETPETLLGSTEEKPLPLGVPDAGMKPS
As to the kind of experiment: flow cytometry, CHO-TNFR2 cells. In outline: (§3)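 EC50 values come from flow cytometry of serially diluted antibodies binding CHO cells that stably overexpress human TNFR2. After incubation in 96-deep-well plates, the cells were washed, stained with a fluorescent anti-IgG secondary antibody and read on a Beckman CytoFLEX.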
In general terms: A flow cytometer gives signals particle by particle.

Experiment [5] has as its target T2, human TNFR2 on the cell membrane. As to the kind of experiment: flow cytometry on CHO-TNFR2 cells. In outline:
as §3

For experiment [6], the target named is T1, TNFR2-His (Sino Biological, 10417-H08H, …). Put plainly: ELISA, plate coated with TNFR2-His (first test). The procedure, abridged:
as §1

For experiment [7] the target is unchanged. As to the kind of experiment: BLI, antibody captured on AHC probe, TNFR2 in solution. In outline:
as §2
For orientation: Biolayer interferometry detects binding as a change in optical thickness at a sensor tip.

In experiment [8] the target is T2, human TNFR2 on the cell membrane. As to the kind of experiment: flow cytometry on CHO-TNFR2 cells. The procedure, abridged: as §3
This is another data set of the same source.

B1: 11G2huVH1 + huVL3(P07271) (antibody, V domains shown)
VH: QVQLVQSGAEVKKPGASVKLSCKASGYTFITYDINWVRQAPGQGLEWIGWIYPRDGNTQFNENFKGKATMTVDESTSTAYMEVRSLRSDDTAVYYCARGDRDYGYFDVWGQGTTVTVSS
VL: DIQMTQSPSSLSASVGDRVTITCQASQDISNYLNWYQQKPGKAPKLLIYFKSKLETGVPSRFSGSGSGTDFTFTISSLQPEDIATYYCQQGNTLPLTFGGGTKLEIK
notes: Humanized 11G2
As to B1, it took 0.0715 µg/mL to reach a half-maximal effect in experiment [1] (EC50). Further, in experiment [2], the EC50 – broadly, the concentration at which the effect is half-maximal – turned out to be 0.479 nM. In addition, in experiment [3], the affinity, expressed as Kd, was 8.4 nM; the koff (commonly a measure of how fast the partners let go of each other) came to 0.00251 s⁻¹; the kon (commonly the second-order rate constant of association) came to 299000 M⁻¹ s⁻¹.

B2: 11G2huVH4 + huVL3(P07274) (antibody, V domains shown)
VH: QVQLVQSGAEVKKPGASVKVSCKASGYTFITYDINWVRQAPGQGLEWIGWIYPRDGNTQYAQKFQGRVTMTTDTSTSTAYMELRSLRSDDTAVYYCARGDRDYGYFDVWGQGTTVTVSS
VL: B1 VL
notes: Humanized 11G2
Regarding B2, the EC50 worked out at 0.0746 µg/mL in experiment [1], 0.226 nM in experiment [4], 0.5 nM in experiment [2] and 0.0338 µg/mL in experiment [5]. Moreover, in experiment [3], binding was put at a Kd of 20.1 nM. For the same molecule, the koff in experiment [3] came to 0.00511 s⁻¹. The kon in experiment [3] was 254000 M⁻¹ s⁻¹.

B3: 11G2huVH5 + huVL2(P07270) (antibody, V domains shown)
VH: B2 VH with P41T, T72R, D73N, T76I, R84S, D89E
VL: B1 VL with Q24R, E55H, T56S, F73L, I83F
notes: Humanized 11G2
On to B3, for which the EC50 in experiment [1] was 0.0527 µg/mL; in experiment [4], 0.162 nM; in experiment [2] it was 0.353 nM; in experiment [5], 0.0242 µg/mL. Moreover, the Kd – broadly, the equilibrium constant for the complex coming apart – in experiment [3] came to 8.13 nM. The molecule further yielded a koff in experiment [3] of 0.00265 s⁻¹. The same molecule registered a kon in experiment [3] of 326000 M⁻¹ s⁻¹.

B4: 11G2huVH2 + huVL3(P07272) (antibody, V domains shown)
VH: B2 VH with Y60F, A61N, Q62E, K63N, Q65K
VL: B1 VL
notes: Humanized 11G2
The molecule B4 returned a half-maximal effective concentration (EC50) in experiment [1] of 0.0859 µg/mL. In experiment [2], this molecule registered an EC50 of 0.576 nM. In experiment [3], the Kd turned out to be 10.6 nM, the koff amounted to 0.00293 s⁻¹ and the kon amounted to 276000 M⁻¹ s⁻¹.

B5: 11G2huVH3 + huVL3(P07273) (antibody, V domains shown)
VH: B2 VH with P41T, Y60F, A61N, Q62E, K63N, T72R, D73N, T76I, R84S, D89E
VL: B1 VL
notes: Humanized 11G2
Molecule B5 gave an EC50 in experiment [1] of 0.0778 µg/mL. The EC50 in experiment [2] was found to be 0.521 nM. In experiment [3], this molecule gave a Kd of 10.2 nM, a koff of 0.00255 s⁻¹ and a kon of 249000 M⁻¹ s⁻¹.

B6: 12E12huVH1+huVL1(P07277) (antibody, V domains shown)
VH: EVQLVQSGAEVKKPGASVKLSCTVSGFNIKDFYIHWVRQAPGQGLEWIGRVDPEDGNTEYAPNFQDRATMTTDTSTNTAYLELSSLRSEDTAVYYCSTWDGFSYFDYWGQGTTVTVSS
VL: QAVVTQEPSLTVSPGGTVTLTCRSSTGPVTTNNYANWVQQKPGQAFRGLIGGTNDRAPGVPARFSGSLIGDKTALTLSGVQPEDEAEYYCALWYRNHWVFGGGTKLTVL
For the molecule B6, in experiment [6], the EC50 was 0.0606 µg/mL and 0.406 nM.

B7: 12E12huVH4 + huVL4(P07291) (antibody, V domains shown)
VH: B6 VH with S17T, L20I, T23K, R38Q, Q43K, A68V, M70I, T72A, N77D, L81M
VL: EAVVTQSPATLSLSPGERATLSCRSSTGPVTTNNYANWVQQKPGQAFRGLIGGTNDRAPGIPARFSGSGSGTDTTLTISSLQPEDFAVYYCALWYRNHWVFGGGTKLEIK
notes: Humanized 12E12
Regarding B7, the EC50 in experiment [6] is 0.0416 µg/mL and 0.279 nM. In experiment [7], this molecule had a Kd of 4.84 nM, a koff of 0.00379 s⁻¹ and a kon of 782000 M⁻¹ s⁻¹. Also, in experiment [8], the EC50 was 0.0215 µg/mL and 0.144 nM.

B8: 12E12huVH3 + huVL2(P07282) (antibody, V domains shown)
VH: QVQLVQSGAEVKKPGASVKVSCKVSGFNIKDFYIHWVRQAPGKGLEWMGRVDPEDGNTEYAQKFQGRVTMTTDTSTDTAYMELSSLRSEDTAVYYCSTWDGFSYFDYWGQGTTVTVSS
VL: B6 VL with I69L, D71G, T73A, V80A
notes: Humanized 12E12
Regarding B8, the EC50 in experiment [6] was 0.045 µg/mL and 0.301 nM. Besides, in experiment [7], the Kd stood at 6.38 nM, the koff was 0.00487 s⁻¹ and the kon was determined as 764000 M⁻¹ s⁻¹. Moreover, the EC50 in experiment [8] is 0.0203 µg/mL and 0.136 nM.

B9: 12E12huVH3+huVL1(P07281) (antibody, V domains shown)
VH: B8 VH
VL: B6 VL
In the case of B9, the EC50 in experiment [6] is 0.0596 µg/mL and 0.399 nM.

B10: 12E12huVH2+huVL2(P07279) (antibody, V domains shown)
VH: B6 VH with E1Q, L20V, T23K, N77S
VL: B6 VL with I69L, D71G, T73A, V80A
As for B10, the EC50 in experiment [6] is 0.0687 µg/mL and 0.46 nM.

B11: 12E12huVH5 + huVL2(P07286) (antibody, V domains shown)
VH: B8 VH with Q1E, S17T, V20I, R38Q, M48I, Q62E, M70I, T72A
VL: B6 VL with I69L, D71G, T73A, V80A
notes: Humanized 12E12
For the molecule B11, the EC50 in experiment [6] is 0.0754 µg/mL and 0.505 nM. In addition, in experiment [7], the Kd turned out to be 1.71 nM, the koff worked out at 0.00197 s⁻¹ and the kon is 1.15e+06 M⁻¹ s⁻¹. In addition, the EC50 in experiment [8] is 0.149 µg/mL and 1 nM.

B12: 12E12huVH4+huVL2(P07284) (antibody, V domains shown)
VH: B6 VH with S17T, L20I, T23K, R38Q, Q43K, A68V, M70I, T72A, N77D, L81M
VL: B6 VL with I69L, D71G, T73A, V80A
Consider B12, for which the EC50 in experiment [6] is 0.049 µg/mL and 0.328 nM.

B13: 12E12huVH2+huVL1(P07278) (antibody, V domains shown)
VH: B6 VH with E1Q, L20V, T23K, N77S
VL: B6 VL
Turning to B13, the EC50 in experiment [6] is 0.0614 µg/mL and 0.411 nM.

B14: 12E12huVH3 + huVL4(P07290) (antibody, V domains shown)
VH: B8 VH
VL: B7 VL
notes: Humanized 12E12
Consider B14, for which the EC50 in experiment [6] was 0.059 µg/mL and 0.395 nM. Further, in experiment [7], the Kd amounted to 5.03 nM, the koff was 0.00407 s⁻¹ and the kon stood at 810000 M⁻¹ s⁻¹. Also, the EC50 in experiment [8] was 0.0367 µg/mL and 0.246 nM.

B15: 12E12huVH5 + huVL4(P07292) (antibody, V domains shown)
VH: B8 VH with Q1E, S17T, V20I, R38Q, M48I, Q62E, M70I, T72A
VL: B7 VL
notes: Humanized 12E12
In the case of B15, the EC50 in experiment [6] is 0.0533 µg/mL and 0.357 nM. In experiment [7], this molecule registered a Kd of 3.14 nM, a koff of 0.0034 s⁻¹ and a kon of 1.08e+06 M⁻¹ s⁻¹. For the same molecule, the EC50 in experiment [8] was 0.0329 µg/mL and 0.221 nM.

B16: 12E12huVH1+huVL4(P07288) (antibody, V domains shown)
VH: B6 VH
VL: B7 VL
B16: in experiment [6], the EC50 is 0.0739 µg/mL and 0.495 nM.

B17: 12E12huVH2+huVL4(P07289) (antibody, V domains shown)
VH: B6 VH with E1Q, L20V, T23K, N77S
VL: B7 VL
In the case of B17, the EC50 in experiment [6] is 0.0672 µg/mL and 0.45 nM.
